Test: yeast display, Sf9 membrane polyspecificity reagent, FACS + sequencing; frameworks hold sequencing errors
Outline: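 A synthetic nanobody library was expressed on Saccharomyces cerevisiae BJ5465 by galactose induction for 36–48 hours. The library was stained for 1 hour at 4 °C with 10% biotinylated, detergent-solubilized Sf9 membrane reagent and enriched with streptavidin microbeads before FACS. Low and high (top ~1%) gates were set on anti-HA fluorescence for expression and streptavidin fluorescence for reagent binding, and each polyreactivity label reflects the gate of origin.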

| Sequence | polyreactivity (PSR sort gate) |
| --- | --- |
| QVQLVESGGGLVQAGGSLRLSCAASGRIFVNYAMGWYRQAPGKERELDAAITSDGSTSYADSVKGRFTISRDNAKNTVYLQMNSLKPEDTAVYYCAKDFFEHSPVSHTYSSSKYDYWGQGTQVTVSS | low polyreactivity |
| QVQLVESGGGLVQAGGSLRLSCAASGRTLIGNAMGWYRQAPGKEREFVAAITRSGGDTYYADSVKGRFTISRDNAKNTVYLQMNSLKPEDTAVYYCAADGQLHMDYWGQGTQVTVSS | high polyreactivity |
| QVQLVESGGGLVQAGGSLRLSCAACGRTFQHYAMGWYRQAPGKERELVAAISSGGRTYYADSVKGRFTISRDNAKNTVYLLMNSLKPEDTAVYYCAARYHGRDPRQIRYGYWGQGTQVNVSS | high polyreactivity |
| QVQLVESGGGLVQAVGSLRLSCAASGSTLYRYALGWYRQAPGKARELDAAISSSGGSTYYADSVKGRFTISRDNAKNTVYLQMNSLKPEDTEVYYCARVARASGVRWYYYWGQGTQVTVSS | high polyreactivity |
| QVQLVESGGGLVQAGGSLRLSCAASGIISRVYAMGWYRQAPGKERELVAAISGSGGTTYYADSVKGRFTISRDNAKNTVYLQMNSLKPEDTAVYYCAARYKALYDYWGQGTQVTVSS | high polyreactivity |
| QVQLVESGGGLVQAGGSLRLSCAASGRTFRAYAMGWYRQAPGKERELVAAITASGTSTYYADSVKGRFTISRDNAKNTVYLQMNSLKPEDTAVYYCARGSWRHFRLYGFDYWGQGTQVTVSS | low polyreactivity |
| QDQLVESGRGLVQAGGNLRLSCAPSRSIFTTYAMGWYRQARGKERHFVATITSSDSTNYADSVKGRFTISRDNAKNTVYLQMNSLNPEETAVYYCNAGGDRTVSVAWYSADDFWGQGTQVTVSS | low polyreactivity |
| QVQLVESGGGLVQAGGSLRLSCAASGFTFIRYAMGWYRQAPGKERELVAAIRGTGTSTYYADSVKGRFTISRDNAKNTVYLQMNSLKPEDTAVYYCNKVSGRSPYTRYDYWGQGTQVTVSS | low polyreactivity |
| QVQLVESGGGLVQAGGSLRLSCAASGNIFLRYAMGWYRQAPGKERELVASITRSGASTYYAVSVKGRFTISRDNAKNTVYLQMNSLKPEDTAVYYCAASYYFRYYRGGYWGQGTQVTVSS | high polyreactivity |
| QVQLVQSGGGLVQAGGSLRLSCAAMGWYRQAPGKERELVATITWSGGSTYYADSVKGRFTISRDNAKNTVYLQMNSLKPEDTAVYYCNARATLLSPANTILGYDYWGQGTQVTVSS | low polyreactivity |
| QVQLVESGGGLVQAGGSLRLSCAASGRTFVRYAMGWYRQAPGKERELVARITSRGTSTYYADSVKGRFTISRDNAKNTVYLQMNSLKPEDTAVYYCNKVSTFREKSRYDYWGQGTQVTVSS | low polyreactivity |
| QVQLVESGVGLVQAGGRLRLSCAASGSIFPTNAMGWYRQAPGKERELVAAISGSGGSTYYADSVKGRFTISRDNAKNTVYLQMNSLKPEDTAVYYCAVKPAPTRTTKRLVYGYNYWGQGTQVTVSS | high polyreactivity |
| QVQLVESGGGLVQAGGSLRLSCAASGRIFSLYTMGWYRQAPGKERELVATISIGGSTNYADSVKGRFTISRDNAKNTVYLQMNSLKPEDTAVYYCATDGSIGYNDRYTNDFDYWGQGTQVTVSS | low polyreactivity |
| QVQLVESGGRLVQAGGSLRLSSAASGSTFVDYDMGWDRQAPGKERELVAAISGSGGRTYYADSVKGRFTISRDTAKNTVYLQLISVKPEDTAVYYCAAVNAGGELAYWGQGTQVTVSS | high polyreactivity |
| QVHLVESGGGLVQAGGSLRLSLAASGRIFGGYAMGWYRQAPGKERELVAGITNTGDTYYADSVKGRFTISRDNAKNNVYLQMNSLKPEDTAVYYCNAEGDKRRDRYDYWGQGTQVTVSS | low polyreactivity |
| QVQLVESGGGLVQAGGSLRLSCAASGFTFVLYAMGWYRQAPGKERELVADITEGGDNTYYADSVKGRFTISRDNAKNTVYLQMNSLKPEDTAVYYCNARASRLYPPYDYWGQGTQVTVSS | high polyreactivity |
| QVQLVESGGGLVQAGGSLRISCAASGSTFFRYAMGWYRQAPGKERELVAAIYKSGASTYYADSVKGRFTISRDNPKNSVYLQMNSLKPEDTGVYYCNADVKNSSAREWQYGYDYWGQGTQVTVSS | low polyreactivity |
| KVQLVESGGGLVQAGGSLRLSCAASGINCYYYAMGWYRQAPGKERELVAVISSSGGRTYYADSVKGRFTISRDNSKNTVYLQMNSLKPEDTAVYYCAARGYGATYDYWGQGTQVTVSS | high polyreactivity |
| QVQLVESGGGLVQAGGSLRLSCAASGSIFPVYAMGWYRQAPGKERELVASISTGGSTYYADSVKGRFTISRDNAKNTVYLQMNSLKPEDTAVYYCAATGWAYGYGYGYWGQGTQVTVSS | low polyreactivity |
| QVQLVESGGGLVQAGGSLRLSCAASGSTFGGSAMGWYRQAPGKERELVAAISKSGGSTYYADSVKGRFTISRDNAKNTVYLQMNSLKPEDTAVYYCNAPYKRSPYNYWGQGTQVTVSS | high polyreactivity |
| QVQLVESGGGLVQAGGSLRLSCAASGGIFRKNAMGWYRQAPGKERELVAAISWDGDNTYADSVKGRFTISRDNAKNTVYLQMNSLKPEDTAVYYCAAETFTDYDYWGQGTQVTVSS | high polyreactivity |
| QVQLVESGGGLVQAGGSLRLNCAASGRIFKYNTRGWYRQAPGKERQLVAAISLSTGSGGGTRYADSVKGRFTISRDNAKNTVYLKMNSLNPEDTAVYYCAARHRYTNEYDYWGQGTQVTVSS | low polyreactivity |
| QVQLVESGGGLVQAGGSLRLSCAASGNIFLYYAMGWYRPAPGKERELVADIDSSGAATYYADSVKGRFTISRDYAKNTVYLQMNSLKPEDTAVYYCAAEFHWWYAGYDYGYWGQGTQVTVSS | low polyreactivity |
| QVQLVETGGGLVQAGGSLSLSCAASGRTFGRYAMGWYRQAPGKERELVAAITWSGGSTYYADSVKGRFTISRDNAKNTVYLQMNSLKPEDTAVYYCAASGYPIYHDDYWGQGTQVTVSS | low polyreactivity |
| QVQLVESGGGLVQAGGSLRLSCAASGSTFRIYAMGLYRQAPGKERELVAAIRRSGGSTYYADSVKGRFTISRDNAKNTVYLQMNSLKPEDTAVYYCAADLYYQAPGYQDRYRHSRYEYWGQGTQVTVSS | high polyreactivity |
| QVQLVESGGGLVQAGGSLRLSCAASGSIFYEYTMGWYRQAPGKERELVAVITSGGTTNYADSVKGRFTISRDNAKNTVYLQMNSLKPEYTAVYYCAAESKNKYDYWGQGTQVTVSS | high polyreactivity |
| QVQLVESRGGVVQAGGSLRLRCAASGRTFYRNVMGWSRQAPGKERELVAAITGDGGSTYYADSVKGRFTISRDNAKNTVYVQMNSQKAEVTAVYYCAASVYPQKRFFYWGHGTQVTVSS | high polyreactivity |
| QVQLVESGGGLVQAGGSLRLSCAATGSNFINYAMGWYRQAPGKERELVAAYADSVKGRFTISRDNAKNTVYLQMNSLKPEDTAVYYCNAVTGEWGQGTQVTVSS | low polyreactivity |
| QVQLVESGGGLVQAGGSHRLSSAASGTTFYGNAMGWYRQAPGKERELVAAISQGGGRTYYADSVKGRFTISRDIAKNTVYLQMISLKPEDTAVYYCAADVWWYRLDFDYWGQGTQVTVSS | high polyreactivity |
| QVQLVESGGGLVQAGGSLRLSCAASGFTFSRNTMGWYSQAPGKERELVARISASGGSTYFADSVKGRITISRDNAKNTVYLQMTSLKQEATAVYYCAAVYRRYGGSRYDYWGQGTQVTVSS | high polyreactivity |

Source: the nanobody polyreactivity screen of Harvey et al. (2022)
